Assay [1] has as its system transcription control region for exon 1b of human aromatase gene. The experiment in a line: Luciferase reporter assay, Ex1b-luc in HepG2 cell (expression of exon 1b of aromatase gene). It is filed as cell-based. As to conditions: 20 hours. On the procedure: The region containing transcription control region for exon 1b of human aromatase gene and a part of the exon 1b was amplified by PCR from genomic DNA extracted from human normal keratinocyte by using the following primers: […]
The resulting PCR product was treated with restriction enzymes SpeI and EcoRI, and incorporated in SpeI site and EcoRI site in SeaPansy null Control Vector (Toyo Ink Mfg. Co., Ltd.) to produce Ex1b-luc plasmid. This plasmid was used in the luciferase assay as will be described below.
Immortalized human hepatoma-derived cell (HepG2 cell) […]
The transfected cells were cultivated overnight, and plant extract prepared in Production Example 1, Table 2, or yeast extract (“YeastLiquid B”, Ichimaru Pharcos Co Ltd.), silk protein extract (“Silkgen G Soluble KE”, Ichimaru Pharcos Co Ltd.), milk protein (“Bioderma SX-14” Ichimaru Pharcos Co Ltd.), “lactoferrin S FREE”, Ichimaru Pharcos Co Ltd.), natto extract (“Soybean polymer F B-20”, Ichimaru Pharcos Co Ltd.), or royal jelly (“royal jelly extract”, Ichimaru Pharcos Co Ltd.) was added (1% or 0.1%), and the cultivation was continued for another 20 hours. After adding 20 μL of alamarBlue (BIOSOURCE), fluorescence intensity (excitation light 544 nm, fluorescence 590 nm) was measured. Luciferase activity was also measured by using PicaGene Dual SeaPansy Luminescence kit (Nippon Gene). […]
A general note: A reporter such as luciferase makes a cellular process visible.

For assay [2], the system named is HepG2 cell. Kind of assay: alamarBlue fluorescence in Ex1b-luc transfected HepG2 cell. It is filed as cell-based, human. As to conditions: 20 hours. On the procedure: Immortalized human hepatoma-derived cell (HepG2 cell)
HepG2 cell was inoculated to 96 well culture plate at 30,000 cells per well, and Ex1b-luc was introduced using lipofectamine reagent (Invitrogen) according to the protocol described in the attached manual. The DNA was used at an amount of 0.1 μg per well. The same procedure was repeated for control without adding the DNA (2 wells).
The transfected cells were cultivated overnight, and plant extract prepared in Production Example 1, Table 2, or yeast extract (“YeastLiquid B”, Ichimaru Pharcos Co Ltd.), silk protein extract (“Silkgen G Soluble KE”, Ichimaru Pharcos Co Ltd.), milk protein (“Bioderma SX-14” Ichimaru Pharcos Co Ltd.), “lactoferrin S FREE”, Ichimaru Pharcos Co Ltd.), natto extract (“Soybean polymer F B-20”, Ichimaru Pharcos Co Ltd.), or royal jelly (“royal jelly extract”, Ichimaru Pharcos Co Ltd.) was added (1% or 0.1%), and the cultivation was continued for another 20 hours. After adding 20 μL of alamarBlue (BIOSOURCE), fluorescence intensity (excitation light 544 nm, fluorescence 590 nm) was measured. Luciferase activity was also measured by using PicaGene Dual SeaPansy Luminescence kit (Nippon Gene). The cells were lysed by adding 25 μL per well of the lysis buffer that had been diluted 5× lysis buffer to 1× concentration.
Background: Resazurin is reduced to fluorescent resorufin, in cell work by metabolically active cells.

B1: Lactoferrin: milk protein; commercial product "Lactoferrin S FREE" (Ichimaru Pharcos) (protein, UniProt P24627 20-708, looked up)
Lactotransferrin: APRKNVRWCTISQPEWFKCRRWQWRMKKLGAPSITCVRRAFALECIRAIAEKKADAVTLDGGMVFEAGRDPYKLRPVAAEIYGTKESPQTHYYAVAVVKKGSNFQLDQLQGRKSCHTGLGRSAGWIIPMGILRPYLSWTESLEPLQGAVAKFFSASCVPCIDRQAYPNLCQLCKGEGENQCACSSREPYFGYSGAFKCLQDGAGDVAFVKETTVFENLPEKADRDQYELLCLNNSRAPVDAFKECHLAQVPSHAVVARSVDGKEDLIWKLLSKAQEKFGKNKSRSFQLFGSPPGQRDLLFKDSALGFLRIPSKVDSALYLGSRYLTTLKNLRETAEEVKARYTRVVWCAVGPEEQKKCQQWSQQSGQNVTCATASTTDDCIVLVLKGEADALNLDGGYIYTAGKCGLVPVLAENRKSSKHSSLDCVLRPTEGYLAVAVVKKANEGLTWNSLKDKKSCHTAVDRTAGWNIPMGLIVNQTGSCAFDEFFSQSCAPGADPKSRLCALCAGDDQGLDKCVPNSKEKYYGYTGAFRCLAEDVGDVAFVKNDTVWENTNGESTADWAKNLNREDFRLLCLDGTRKPVTEAQSCHLAVAPNHAVVSRSDRAAHVKQVLLHQQALFGKNGKNCPDKFCLFKSETKNLLFNDNTECLAKLGGRPTYEEYLGTEYVTAIANLKKCSTSPLLEACAFLTR
B1: the values for the Luciferase activity in assay [1] (added at 0.1%) and in assay [1] (added at 1%) were 155.2% and 181.5%, respectively. For the same molecule, the values for the AlamarBlue activity in assay [2] (added at 0.1%) and in assay [2] (added at 1%) were 135.9% and 138.2%, respectively.

Source of the values: patent publication US7887851B2, “Aromatase activator” (Kao Corporation, priority 2004, dated 2011).
